Data on twelve molecules can be found in publication PMC5077151, “Wild-Type U2AF1 Antagonizes the Splicing Program Characteristic of U2AF1-Mutant Tumors and Is Required for Cell Survival”.

Sequence of U2AF1 S34F;U2AF2;SF1 (Q01081 1-193 S34F, chain 1 of 3): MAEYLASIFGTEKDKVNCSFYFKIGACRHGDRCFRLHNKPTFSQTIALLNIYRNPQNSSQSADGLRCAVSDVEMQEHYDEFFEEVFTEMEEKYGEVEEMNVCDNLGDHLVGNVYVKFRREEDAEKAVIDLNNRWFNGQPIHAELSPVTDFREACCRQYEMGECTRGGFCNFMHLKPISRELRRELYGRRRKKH
Sequence of U2AF1 S34F;U2AF2;SF1 (P26368 other isoform, or with tags, fused parts or gaps S34F|| | S34F S34F, chain 2 of 3): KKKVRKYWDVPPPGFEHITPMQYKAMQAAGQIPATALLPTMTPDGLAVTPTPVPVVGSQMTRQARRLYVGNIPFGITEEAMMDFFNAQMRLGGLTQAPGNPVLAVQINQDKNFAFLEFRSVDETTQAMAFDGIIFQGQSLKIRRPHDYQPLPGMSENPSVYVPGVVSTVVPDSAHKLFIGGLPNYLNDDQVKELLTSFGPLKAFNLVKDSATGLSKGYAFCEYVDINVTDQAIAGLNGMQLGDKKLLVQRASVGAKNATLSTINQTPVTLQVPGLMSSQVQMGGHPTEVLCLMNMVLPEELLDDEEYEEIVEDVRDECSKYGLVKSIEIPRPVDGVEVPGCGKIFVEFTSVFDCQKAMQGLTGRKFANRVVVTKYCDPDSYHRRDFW
Sequence of U2AF1 S34F;U2AF2;SF1 (Q15637 1-255, chain 3 of 3): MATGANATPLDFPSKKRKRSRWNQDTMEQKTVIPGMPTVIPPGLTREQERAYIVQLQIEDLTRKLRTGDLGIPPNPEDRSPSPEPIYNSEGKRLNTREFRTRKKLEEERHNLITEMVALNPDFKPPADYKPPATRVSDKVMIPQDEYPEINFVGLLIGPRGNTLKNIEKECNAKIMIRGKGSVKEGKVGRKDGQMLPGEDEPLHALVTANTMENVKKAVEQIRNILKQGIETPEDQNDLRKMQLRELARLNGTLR

The first data set deals with U2AF1 WT;U2AF2;SF1 (Homo sapiens?;Homo sapiens?;Homo …, UniProt Q01081;P26368-2;Q15637 1-193;85-471;1-255, ||). The data set is described as follows: fluorescence anisotropy; 20 nM 5'-fluorescein RNA, size-exclusion chromatography buffer (composition, pH and temperature not in the material), 384-well plate, 3 replicates. The note with it: protein: recombinant;recombinant;recombinant; tags: ;;; copies: 1;1;1; label: 5' fluorescein. On the technique in general: In fluorescence polarisation assays a small probe gives low polarisation when free and higher when bound to something large.
Sequence of U2AF1 WT;U2AF2;SF1 (Q01081 1-193, chain 1 of 3): as the sequence (Q01081 1-193 S34F, chain 1 of 3) above, with F34S counted along it
Sequence of U2AF1 WT;U2AF2;SF1 (P26368 other isoform, or with tags, fused parts or gaps ||, chain 2 of 3): as the sequence (P26368 other isoform, or with tags, fused parts or gaps S34F|| | S34F S34F, chain 2 of 3) above
Sequence of U2AF1 WT;U2AF2;SF1 (Q15637 1-255, chain 3 of 3): as the sequence (Q15637 1-255, chain 3 of 3) above
As for GUAUAUAACUUUUAACUCUCGAUAGGAACUAAUUC (ssRNA) [FMR1 proximal 3' splice site], the Kd (as a rule, the equilibrium constant for the complex coming apart) was 188 ± 27 nM.

Turning to UGAAAAAGUUGUCUCCCUUUGGCAGGCAAAAGA (ssRNA) [FXR1 distal 3' splice site], the Kd turned out to be 41 ± 6 nM.

In the case of UCUUCCAUAUCCACCUUUUCCUAAGAUGGCAAG (ssRNA) [ATR proximal 3' splice site], the dissociation constant (Kd) worked out at 188 ± 52 nM.

CAUUUCCUCCUUUUUGCAUUUUCAGGUGACUGU (ssRNA) [ZFAND1 distal 3' splice site]: the Kd came to 53 ± 4 nM.

Take UAAACACUUGCUAUUAUUAUUUAAGCCUUGAAC (ssRNA) [ZFAND1 proximal 3' splice site]: the Kd came to 24 ± 1 nM.

Regarding GAAGCAUCAAAUGCUUCUGAAACAGAAUCUGACCA (ssRNA) [FMR1 distal 3' splice site], the Kd is 427 ± 20 nM.

In the case of UUUUUCUCAUCUUUAACAGUCACAGUUGCAGAU (ssRNA) [FXR1 proximal 3' splice site], the Kd was determined as 71 ± 6 nM.

For the molecule CACUUGUCAUCAUUUUUGUUUCUAGAGUGUCCACA (ssRNA) [CEP164 distal 3' splice site], the Kd amounted to 497 ± 46 nM.

Regarding GCCGGCUGAGCCCCUCCACUUCCAGGUCAGCCA (ssRNA) [MED15 distal 3' splice site], the Kd is 157 ± 25 nM.

Turning to UUGACUGUCCUUCUCUAUUUUGAAGCCUUCACAGG (ssRNA) [CEP164 proximal 3' splice site], the Kd amounted to 12 ± 1 nM.

As for GUCUGUUGUCCCUCUGUCCUCAAAGAUGAUCAC (ssRNA) [MED15 proximal 3' splice site], the dissociation constant Kd was 208 ± 35 nM.

Turning to UUGGUUUUAUGUUUCUUCUUUUUAGGCCAAGAC (ssRNA) [ATR distal 3' splice site], the dissociation constant (Kd) turned out to be 7 ± 0.5 nM.

A further data set has as its target U2AF1 S34F;U2AF2;SF1 (Homo sapiens?;Homo sapiens?;Homo …, UniProt Q01081;P26368-2;Q15637 1-193;85-471;1-255, S34F||). Described as above. The note with it: protein: recombinant;recombinant;recombinant; tags: ;;; copies: 1;1;1; label: 5' fluorescein.
Consider GUAUAUAACUUUUAACUCUCGAUAGGAACUAAUUC (ssRNA) [FMR1 proximal 3' splice site], for which the dissociation constant (Kd) was 281 ± 44 nM.

On to UGAAAAAGUUGUCUCCCUUUGGCAGGCAAAAGA (ssRNA) [FXR1 distal 3' splice site], for which the equilibrium dissociation constant (Kd) was 46 ± 11 nM.

Regarding CAUUUCCUCCUUUUUGCAUUUUCAGGUGACUGU (ssRNA) [ZFAND1 distal 3' splice site], the Kd stood at 43 ± 7 nM.

Take UAAACACUUGCUAUUAUUAUUUAAGCCUUGAAC (ssRNA) [ZFAND1 proximal 3' splice site]: the dissociation constant (Kd) came to 5 ± 1 nM.

As for GAAGCAUCAAAUGCUUCUGAAACAGAAUCUGACCA (ssRNA) [FMR1 distal 3' splice site], the dissociation constant (Kd) was 444 ± 58 nM.

On to UUUUUCUCAUCUUUAACAGUCACAGUUGCAGAU (ssRNA) [FXR1 proximal 3' splice site], for which the Kd was 38 ± 6 nM.

CACUUGUCAUCAUUUUUGUUUCUAGAGUGUCCACA (ssRNA) [CEP164 distal 3' splice site]: the Kd stood at 447 ± 63 nM.

With GCCGGCUGAGCCCCUCCACUUCCAGGUCAGCCA (ssRNA) [MED15 distal 3' splice site], the Kd worked out at 32 ± 8 nM.

UUGACUGUCCUUCUCUAUUUUGAAGCCUUCACAGG (ssRNA) [CEP164 proximal 3' splice site]: the equilibrium dissociation constant (Kd) amounted to 49 ± 9 nM.

On to GUCUGUUGUCCCUCUGUCCUCAAAGAUGAUCAC (ssRNA) [MED15 proximal 3' splice site], for which the dissociation constant (Kd) was determined as 483 ± 106 nM.

With UUGGUUUUAUGUUUCUUCUUUUUAGGCCAAGAC (ssRNA) [ATR distal 3' splice site], the dissociation constant (Kd) stood at 49 ± 6 nM.
